Source: patent US20220089758A1

Molecular target: CD40 protein displayed on cell surface (UniProt P25942)
Test: cell-based or functional assay

Chain of CD40 protein displayed on cell surface (P25942 21-277 limits assumed): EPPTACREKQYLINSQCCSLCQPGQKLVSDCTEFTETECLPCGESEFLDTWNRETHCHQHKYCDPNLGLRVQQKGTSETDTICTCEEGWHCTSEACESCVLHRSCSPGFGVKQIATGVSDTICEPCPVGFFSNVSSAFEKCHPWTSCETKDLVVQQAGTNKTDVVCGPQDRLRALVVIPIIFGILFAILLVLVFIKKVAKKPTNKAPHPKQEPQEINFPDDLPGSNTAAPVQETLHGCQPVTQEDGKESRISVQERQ

CP-870893 (antibody)
EC50 in activating MoDC assessed by CD86 expression: 4.2 nM | EC50 in activating monocyte derived dendritic cell (MoDC) assessed by CD80 expression: 5 nM
